Experimental data taken from the Human Domainome abundance scans (Beltran et al. 2025).

B1: Zinc finger MYM-type protein 3, residues 589 to 668; numbered along this chain, Q14202 (parent)
chain: LSCHYCHSLFSGKPEVLDWQDQVFQFCCRDCCEDFKRLRGVVSQCEHCRQEKLLHEKLRFSGVEKSFCSEGCVLLYKQDF

Variants of: B1
Experiment: abundance fitness (aPCA) (normalised: wild type 0, dead -1); higher = more abundant; growth selection in yeast, the domain comes from the species named
Settings: Homo sapiens

Abundance fitness of substitutions, site by site:
H4: A 0.28 | R 0.115 | I -0.064 | F 0.128 | Q 0.088 | T 0.19 | D 0.128 | M 0.227 | N 0.225 | G 0.29 | Y 0.116 | E 0.174 | P -0.061 | K 0.179 | V 0.054 | S 0.248 | L -0.05 | W 0.079 | C 0.26
S2: N 0.48 | T -0.051 | H 0.281 | W -0.069 | P -0.39 | D 0.412 | G 0.157 | E 0.159 | K 0.354 | L 0.081 | I 0.311 | F 0.141 | V 0.135 | M 0.243 | Y 0.293 | A 0.106 | R 0.12
S11: A -0.374 | G -0.169 | C -0.512 | E -0.276 | F -0.397
F10: W -0.298 | Q -0.685 | E -0.691 | A -0.316 | Y -0.191 | R -0.498 | N -0.373 | G -0.408 | H -0.043 | P -0.052 | K -0.535 | S -0.316 | I -0.115 | T -0.16 | D -0.623
Y5: C 0.01 | A 0.267 | L 0.082 | T -0.009 | M 0.313 | I -0.061 | E -0.081 | G 0.156 | P -0.906 | K 0.294 | N 0.021 | Q 0.203 | F 0.095 | D -0.615 | R 0.19 | H -0.066
H7: F 0.165 | I 0.088 | Q -0.12 | R 0.049 | T 0.124 | S 0.237 | V -0.145 | N 0.126 | M -0.133 | W -0.187 | G 0.117 | Y 0.112 | A 0.154 | K 0.055 | D 0.226 | E 0.158
S8: F -0.039 | M 0.355 | T 0.246 | A 0.321 | H 0.188 | Y 0.192 | E 0.154 | W -0.015 | Q 0.397 | G 0.248 | P -1.19 | R 0.332 | K 0.486 | L 0.062 | V 0.374 | I 0.309 | N 0.297 | D 0.076
C6: R -0.919 | V -0.995 | G -1.05 | Q -0.892 | Y -0.828 | F -1.2 | M -0.325 | D -1.01 | H -0.821 | P -0.949 | W -0.978
L1: G -0.034 | E 0.082 | V 0.364 | Y 0.047 | S -0.206 | A -0.012 | M 0.442 | K 0.016 | W -0.641 | Q -0.703 | F 0.279 | P -0.436 | T 0.098 | R -0.439 | I 0.363 | N 0.239 | C 0.004
L9: K -0.096 | N -0.121 | S 0.009 | G 0.121 | R -0.012 | Q 0.093 | F -0.062 | C -0.184 | W -0.095 | D -0.073 | V 0.015 | T 0.083 | P 0.15 | M -0.097 | E -0.021
C3: Y -0.984 | G -1.01 | L -0.896 | H -1.17 | F -0.63 | M -0.505 | K -0.837 | D -1.04 | R -0.949 | A -0.906 | S -1.06 | Q -0.998 | E -0.823 | N -1.11 | V -0.871 | I -1.02 | P -1.06 | T -0.936
